How the values were obtained:
[1] = target: platelet activating factor receptor (PAFr) of 16HBE14 human bronchial epithelial cells (human (endogenous in 16HBE14)) (UniProt P25105)
[2] = target: recombinant human PAFr coupled to the G-protein Giα3β1γ2 (UniProt P25105); test: ELISA
[3] = target: recombinant human PAFr coupled to the G-protein Giα2β1γ2 (UniProt P25105); test: ELISA

pili of N. meningitidis strain 8013SBpptA8G (ChoP+) (natural protein)
> 2 fold: adherence of 8013SBpptA8G bacteria to Chem-1-PAFr cells, fold increase against 8013SB WT bacteria (fluorescence, 30 min) [1] | fold increase against pili of 8013SB WT [2] | fold increase against pili of 8013SB WT [3]
